{
  "source": "patent US20070161040A1",
  "target": "rabbit IgG",
  "data": [
    {"substance": "TEM-PA hybrid protein where one repeated domain of the protein A was internalised (from UniProt P62593 24-195; P38507 212-269; P62593 196-286)", "values": [
      {"measurement": "amount of immobilised rabbit IgG that can be detected", "result": "10 to 100", "unit": "ng"}
    ]}
  ]
}
